From patent publication US20200079855A1 (Pfizer, published 2020) come the findings set out here.

Test [1] has as its target T1, human αvβ8 integrin on U251 cells (human, UniProt P06756 31-1048). Put plainly: apparent KD, flow cytometry on U251 cells.
Test [2] has as its target T1, human αvβ8 integrin on U251 cells. Put plainly: flow cytometry, IgG binding to U251 cells (ΔMFI, background subtracted); EC50 unit inferred, axis Log10 [Ab] (nM); Table 7 of the text gives the rounded value as U251 app KD 823 pM.
Test [3] has the same target. Put plainly: flow cytometry, IgG binding to U251 cells (ΔMFI, background subtracted); EC50 unit inferred, axis Log10 [Ab] (nM); Table 7 of the text gives U251 app KD 430 pM. Background: Flow cytometry measures light scatter and fluorescence of single cells or particles in a stream.
Test [4] has the same target. Put plainly: cell-based or functional assay.
The target in test [5] is T2, recombinant human αvβ3 integrin (human, UniProt P06756 31-992; P05106 27-718).
T2 construct: Used in ELISA and immobilised on the Biacore chip; construct not described; also called hαvβ3; AVB3
T2 sequence (P06756 31-992 limits assumed, chain 1 of 2): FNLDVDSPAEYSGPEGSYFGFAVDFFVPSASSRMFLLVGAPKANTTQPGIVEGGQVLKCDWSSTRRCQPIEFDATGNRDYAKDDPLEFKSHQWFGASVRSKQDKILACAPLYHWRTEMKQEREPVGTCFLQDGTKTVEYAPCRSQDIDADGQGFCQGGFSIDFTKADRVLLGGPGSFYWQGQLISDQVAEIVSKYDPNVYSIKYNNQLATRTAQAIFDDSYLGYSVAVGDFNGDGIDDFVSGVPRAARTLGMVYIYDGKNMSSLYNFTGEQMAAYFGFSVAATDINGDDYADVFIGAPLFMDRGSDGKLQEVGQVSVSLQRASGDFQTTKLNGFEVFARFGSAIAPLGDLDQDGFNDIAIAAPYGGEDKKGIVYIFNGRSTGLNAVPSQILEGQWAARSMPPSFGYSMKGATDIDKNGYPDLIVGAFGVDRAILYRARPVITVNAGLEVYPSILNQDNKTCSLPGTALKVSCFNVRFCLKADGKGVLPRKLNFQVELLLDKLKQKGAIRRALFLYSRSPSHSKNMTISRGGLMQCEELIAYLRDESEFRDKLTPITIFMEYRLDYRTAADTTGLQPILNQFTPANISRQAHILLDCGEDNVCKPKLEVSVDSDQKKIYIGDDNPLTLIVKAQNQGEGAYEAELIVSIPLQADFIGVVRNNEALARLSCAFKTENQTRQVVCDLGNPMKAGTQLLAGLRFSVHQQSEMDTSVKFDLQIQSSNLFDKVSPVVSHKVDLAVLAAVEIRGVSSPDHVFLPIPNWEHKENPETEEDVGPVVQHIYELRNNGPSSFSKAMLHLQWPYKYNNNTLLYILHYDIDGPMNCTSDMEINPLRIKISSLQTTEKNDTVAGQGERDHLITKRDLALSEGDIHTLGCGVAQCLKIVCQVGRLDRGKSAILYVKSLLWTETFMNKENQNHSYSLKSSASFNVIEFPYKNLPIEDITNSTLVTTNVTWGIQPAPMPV
T2 sequence (P05106 27-718 limits assumed, chain 2 of 2): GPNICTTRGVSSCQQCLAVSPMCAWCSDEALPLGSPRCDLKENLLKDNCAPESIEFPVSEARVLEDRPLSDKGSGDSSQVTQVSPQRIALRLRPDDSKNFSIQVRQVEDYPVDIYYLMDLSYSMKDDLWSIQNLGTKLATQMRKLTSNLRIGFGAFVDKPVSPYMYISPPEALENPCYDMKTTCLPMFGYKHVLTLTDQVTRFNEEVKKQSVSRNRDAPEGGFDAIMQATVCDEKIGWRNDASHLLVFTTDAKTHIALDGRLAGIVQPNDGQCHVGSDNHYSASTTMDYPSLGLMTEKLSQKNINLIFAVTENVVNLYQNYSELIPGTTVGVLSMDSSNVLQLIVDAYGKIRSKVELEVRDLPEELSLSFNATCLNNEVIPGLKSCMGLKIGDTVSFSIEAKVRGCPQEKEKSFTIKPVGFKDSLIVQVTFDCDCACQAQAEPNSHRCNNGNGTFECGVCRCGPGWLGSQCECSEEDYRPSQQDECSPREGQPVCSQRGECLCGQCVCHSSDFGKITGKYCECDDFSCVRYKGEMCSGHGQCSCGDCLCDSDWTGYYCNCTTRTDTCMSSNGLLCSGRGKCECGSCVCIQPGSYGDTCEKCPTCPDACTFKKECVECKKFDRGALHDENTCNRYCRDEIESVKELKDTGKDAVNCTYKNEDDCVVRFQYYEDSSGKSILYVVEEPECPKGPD
Put plainly: Biacore, recombinant human αvβ3 immobilised on the chip; concentration not shown. The protocol: (§1) To evaluate the specificity of ADWA11 2.4, recombinant human αvβ6 and αvβ3 were immobilized on a Biacore chip and binding of the parental murine and humanized mAb variant of ADWA11 2.4 was determined.
For orientation: Surface plasmon resonance follows binding to a sensor surface in real time, without labels.

Test [6] has as its target T3, recombinant human αvβ6 integrin (human, UniProt P06756 31-992; P18564 22-707).
T3 construct: Used in ELISA and immobilised on the Biacore chip; construct not described; also called hαvβ6; AVB6
Put plainly: Biacore, recombinant human αvβ6 immobilised on the chip; concentration not shown. The protocol: as §1

The target of test [7] is T1, human αvβ8 integrin on U251 cells. Put plainly: flow cytometry, IgG binding to U251 cells (MFI PE-A), left panel ADWA11_IgG_U251 cell binding; EC50 unit inferred, axis Log10 [mAb] nM.
The target in test [8] is T4, mouse αvβ8 integrin on C8-S cells (mouse, UniProt P43406 31-1044; Q0VBD0 22-767).
T4 construct: Endogenous αvβ8 of C8-S mouse astrocyte cells; also called C8-S (mouse astrocyte); C8-S (mouse avb8)
T4 sequence (P43406 31-1044 limits assumed, chain 1 of 2): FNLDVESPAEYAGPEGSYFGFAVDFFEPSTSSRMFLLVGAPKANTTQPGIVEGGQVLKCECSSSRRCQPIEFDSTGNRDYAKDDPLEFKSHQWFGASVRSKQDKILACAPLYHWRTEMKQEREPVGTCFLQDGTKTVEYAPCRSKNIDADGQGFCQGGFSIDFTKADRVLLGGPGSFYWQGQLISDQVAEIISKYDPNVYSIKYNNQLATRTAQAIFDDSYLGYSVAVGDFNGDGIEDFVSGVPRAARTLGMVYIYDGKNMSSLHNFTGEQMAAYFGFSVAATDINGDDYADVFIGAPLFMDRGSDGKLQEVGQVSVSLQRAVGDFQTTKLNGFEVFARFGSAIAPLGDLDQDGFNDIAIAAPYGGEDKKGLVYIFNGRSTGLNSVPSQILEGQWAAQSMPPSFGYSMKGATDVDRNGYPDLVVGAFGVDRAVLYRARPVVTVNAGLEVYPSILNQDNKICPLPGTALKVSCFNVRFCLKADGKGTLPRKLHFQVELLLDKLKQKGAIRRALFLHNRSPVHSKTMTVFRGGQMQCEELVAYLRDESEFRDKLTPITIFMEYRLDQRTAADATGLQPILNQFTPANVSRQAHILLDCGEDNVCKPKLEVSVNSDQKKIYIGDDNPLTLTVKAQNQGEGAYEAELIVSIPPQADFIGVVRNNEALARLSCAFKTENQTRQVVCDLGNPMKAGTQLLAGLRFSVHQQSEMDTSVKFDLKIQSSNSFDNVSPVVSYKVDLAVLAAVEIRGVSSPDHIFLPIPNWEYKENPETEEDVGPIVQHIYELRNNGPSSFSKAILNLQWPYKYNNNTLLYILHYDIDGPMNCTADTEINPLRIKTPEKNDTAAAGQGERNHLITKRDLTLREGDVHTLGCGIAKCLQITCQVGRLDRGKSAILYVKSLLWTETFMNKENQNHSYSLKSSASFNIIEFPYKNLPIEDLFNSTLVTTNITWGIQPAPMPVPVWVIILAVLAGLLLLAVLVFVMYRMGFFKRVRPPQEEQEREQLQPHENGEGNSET
T4 sequence (Q0VBD0 22-767 limits assumed, chain 2 of 2): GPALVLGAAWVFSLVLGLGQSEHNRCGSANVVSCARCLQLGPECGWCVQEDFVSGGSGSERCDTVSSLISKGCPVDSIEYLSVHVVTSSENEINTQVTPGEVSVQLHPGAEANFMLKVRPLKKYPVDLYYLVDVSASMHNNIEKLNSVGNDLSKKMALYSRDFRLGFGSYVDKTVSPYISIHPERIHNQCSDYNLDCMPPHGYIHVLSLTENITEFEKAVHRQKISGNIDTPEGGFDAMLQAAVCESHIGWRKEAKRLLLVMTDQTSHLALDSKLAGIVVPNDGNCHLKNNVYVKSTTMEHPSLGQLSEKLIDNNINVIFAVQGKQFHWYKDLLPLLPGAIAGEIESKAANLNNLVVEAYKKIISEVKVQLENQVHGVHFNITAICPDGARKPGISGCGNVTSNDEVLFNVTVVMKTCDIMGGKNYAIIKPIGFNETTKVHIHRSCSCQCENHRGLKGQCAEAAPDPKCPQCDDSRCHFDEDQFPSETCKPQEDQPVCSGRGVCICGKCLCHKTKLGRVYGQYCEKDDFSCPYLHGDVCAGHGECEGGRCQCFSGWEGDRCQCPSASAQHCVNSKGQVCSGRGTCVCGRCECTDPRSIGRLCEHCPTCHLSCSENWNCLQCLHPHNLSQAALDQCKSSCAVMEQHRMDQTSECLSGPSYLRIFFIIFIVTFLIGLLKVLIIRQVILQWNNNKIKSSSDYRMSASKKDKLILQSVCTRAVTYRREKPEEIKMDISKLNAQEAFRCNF
Put plainly: flow cytometry, IgG binding to C8-S cells (MFI PE-A), right panel ADWA11_IgG_C8-S cell binding; EC50 unit inferred, axis Log10 [mAb] nM. The protocol:
100,000 cells were incubated with a dilution series of the anti-αvβ8 or human IgG1_3 mut Isotype antibody for three to four hours on ice. The cells were spun down for five minutes at 300 g force. The cells were then washed three times with wash buffer (PBS+0.2% BSA) to remove excess unbound antibodies. After thorough washing, cells were incubated with Fab′2 anti-human Fc-PE (Invitrogen) or goat Fab′2 anti-mouse-APC (Jackson Labs) at 1:1000 dilution along with LIVE/DEAD fixable cell stain (Invitrogen) at 1:2000 to distinguish live cells. The whole content was incubated for 30 minutes on ice. After washing, the stained cells were analyzed on BD biosciences Fortessa flow cytometer (gated for live cells) using FlowJo analysis software. The mean fluorescence intensities (MFI) at different antibody concentrations were plotted for various antibodies.
The apparent-affinity of ADWA11 2.4 for U251 (human glioblastoma) or C8-S (mouse astrocyte) cells was also evaluated in a cell-binding assay, according to the methods as generally described herein. Briefly, cells were incubated with a serial dilution of ADWA11 2.4 for 4 hours on ice, followed by detection on bound antibody with an anti-human-PE secondary antibody, and analyzed by flow cytometry.

For test [9], the target named is recombinant human αvβ8 integrin (human) (UniProt P06756). Put plainly: SPR (Biacore T200), Fab over biotinylated recombinant αvβ8 on streptavidin chip, n>=3.
Test [10] concerns the target T5, recombinant mouse αvβ8 integrin (mouse, UniProt P43406 31-988; Q0VBD0 22-681, limits assumed).
T5 construct: Recombinant protein immobilised on the Biacore chip
The test is described as above. The protocol:
(§2) More specifically, recombinant αvβ8 integrin (e.g., R&D Systems) was biotin labeled via primary amines and immobilized on a Sensor Chip SA using a Biacore™ T200 instrument (GE Healthcare Life Sciences). Fab binding experiments were performed at 25° C. using a 30 μl/min flow rate in 0.01 M HEPES pH 7.4, 0.15 M NaCl, 1-2 mM MgCl₂, and 0.005% v/v surfactant P20 (HBS-P) buffer. Association was monitored for 5-10 minutes and dissociation for a further 15-20 minutes for each Fab concentration. After each injection, the chip surface was regenerated with IgG elution buffer (Thermo Fisher Scientific). All data was analyzed using the Biacore™ T200 Evaluation software. Data was dual background subtracted using the adjacent flow cell coupled with streptavidin without captured integrin, and buffer only injections. Kinetic constants for at least three experiments were obtained and reported as the mean.
(§3) To evaluate the monomeric KD of the Fab ADWA11 2.4, also referred to herein as ADWA-11 VH05-2/VK01(2.4) and ADWA11 5-2 2.4, and the parental mouse IgG, recombinant human, cynomolgus, mouse, and rat αvβ8 was immobilized on a Biacore chip and the ka and kd of the Fabs were determined as generally described herein (Table 6).

For test [11], the target named is T6, recombinant cynomolgus monkey αvβ8 integrin (cynomolgus monkey, limits assumed).
T6 construct: Recombinant protein immobilised on the Biacore chip; also called cyno αvβ8; cynomolgus αvβ8
T6 chain 1: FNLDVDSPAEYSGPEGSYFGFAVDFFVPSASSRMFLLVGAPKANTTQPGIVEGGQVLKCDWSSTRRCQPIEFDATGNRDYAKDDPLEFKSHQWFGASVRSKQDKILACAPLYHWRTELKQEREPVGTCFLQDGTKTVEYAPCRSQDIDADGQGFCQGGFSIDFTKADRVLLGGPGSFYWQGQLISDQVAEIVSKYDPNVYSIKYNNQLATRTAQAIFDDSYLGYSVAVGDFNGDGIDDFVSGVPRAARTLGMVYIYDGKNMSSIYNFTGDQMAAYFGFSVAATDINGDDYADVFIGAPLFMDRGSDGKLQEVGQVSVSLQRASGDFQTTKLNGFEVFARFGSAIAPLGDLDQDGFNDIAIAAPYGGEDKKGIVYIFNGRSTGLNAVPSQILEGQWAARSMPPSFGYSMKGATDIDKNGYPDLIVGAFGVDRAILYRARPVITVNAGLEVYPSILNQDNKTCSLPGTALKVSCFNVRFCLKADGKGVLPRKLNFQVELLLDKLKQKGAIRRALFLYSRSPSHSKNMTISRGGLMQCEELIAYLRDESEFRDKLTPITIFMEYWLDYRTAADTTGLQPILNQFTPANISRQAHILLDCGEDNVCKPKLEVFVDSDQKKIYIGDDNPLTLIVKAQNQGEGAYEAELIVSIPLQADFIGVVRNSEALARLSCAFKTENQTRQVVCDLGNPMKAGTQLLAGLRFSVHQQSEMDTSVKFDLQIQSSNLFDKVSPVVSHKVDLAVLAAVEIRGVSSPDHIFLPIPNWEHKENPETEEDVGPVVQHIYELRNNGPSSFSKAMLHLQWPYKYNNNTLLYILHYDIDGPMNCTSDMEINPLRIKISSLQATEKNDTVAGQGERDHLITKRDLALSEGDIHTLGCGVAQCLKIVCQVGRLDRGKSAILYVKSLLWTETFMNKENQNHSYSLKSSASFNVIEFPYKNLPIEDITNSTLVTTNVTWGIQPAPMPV
T6 chain 2: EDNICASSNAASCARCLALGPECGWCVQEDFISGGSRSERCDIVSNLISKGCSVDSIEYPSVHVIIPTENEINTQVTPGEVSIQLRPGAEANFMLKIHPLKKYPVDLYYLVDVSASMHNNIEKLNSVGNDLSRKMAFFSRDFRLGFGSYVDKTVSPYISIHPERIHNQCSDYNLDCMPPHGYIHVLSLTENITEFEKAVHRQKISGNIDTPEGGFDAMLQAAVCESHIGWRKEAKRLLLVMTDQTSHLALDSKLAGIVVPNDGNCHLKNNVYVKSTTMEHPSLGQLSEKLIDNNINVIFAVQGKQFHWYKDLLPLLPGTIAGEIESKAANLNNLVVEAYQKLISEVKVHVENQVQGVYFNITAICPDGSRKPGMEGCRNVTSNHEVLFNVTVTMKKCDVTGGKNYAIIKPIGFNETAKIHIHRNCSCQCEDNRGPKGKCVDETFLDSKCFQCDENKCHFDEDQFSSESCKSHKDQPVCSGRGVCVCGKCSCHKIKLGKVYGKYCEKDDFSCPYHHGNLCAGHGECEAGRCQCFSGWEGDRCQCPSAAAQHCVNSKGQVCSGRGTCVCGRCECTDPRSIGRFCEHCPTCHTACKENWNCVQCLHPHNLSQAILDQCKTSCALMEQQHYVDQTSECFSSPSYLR
The description is as above. The protocol: as §2, §3

Test [12] addresses T7, recombinant rat αvβ8 integrin (rat, UniProt F1LZX9 31-987; A0A0G2JVU1 43-682).
T7 construct: Recombinant protein immobilised on the Biacore chip
The test is described as above. The protocol:
as §2, §3

In test [13] the target is recombinant human αvβ8 integrin (human) (UniProt P06756). Put plainly: ELISA (DELFIA counts) on human αvβ8, Fab titration. Background: An ELISA detects its analyte on a solid surface through an enzyme-linked reagent.
For test [14] the target is unchanged. Put plainly: ELISA (DELFIA counts) on human αvβ8, Fab titration; identity of the molecule see the row before.
Test [15] shares this target. Put plainly: SPR (Biacore), Fab affinity of Table 3.
Test [16] has as its target T1, human αvβ8 integrin on U251 cells. Put plainly: cell-based or functional assay. This is another data set of the same source.

Numbering of substitutions follows the chain as printed. Numbers in names are those of the source. Where “and” joins values, the source holds several entries; their conditions need not be identical. Equal values may be shown once.

T5 sequence (P43406 31-988 limits assumed, chain 1 of 2): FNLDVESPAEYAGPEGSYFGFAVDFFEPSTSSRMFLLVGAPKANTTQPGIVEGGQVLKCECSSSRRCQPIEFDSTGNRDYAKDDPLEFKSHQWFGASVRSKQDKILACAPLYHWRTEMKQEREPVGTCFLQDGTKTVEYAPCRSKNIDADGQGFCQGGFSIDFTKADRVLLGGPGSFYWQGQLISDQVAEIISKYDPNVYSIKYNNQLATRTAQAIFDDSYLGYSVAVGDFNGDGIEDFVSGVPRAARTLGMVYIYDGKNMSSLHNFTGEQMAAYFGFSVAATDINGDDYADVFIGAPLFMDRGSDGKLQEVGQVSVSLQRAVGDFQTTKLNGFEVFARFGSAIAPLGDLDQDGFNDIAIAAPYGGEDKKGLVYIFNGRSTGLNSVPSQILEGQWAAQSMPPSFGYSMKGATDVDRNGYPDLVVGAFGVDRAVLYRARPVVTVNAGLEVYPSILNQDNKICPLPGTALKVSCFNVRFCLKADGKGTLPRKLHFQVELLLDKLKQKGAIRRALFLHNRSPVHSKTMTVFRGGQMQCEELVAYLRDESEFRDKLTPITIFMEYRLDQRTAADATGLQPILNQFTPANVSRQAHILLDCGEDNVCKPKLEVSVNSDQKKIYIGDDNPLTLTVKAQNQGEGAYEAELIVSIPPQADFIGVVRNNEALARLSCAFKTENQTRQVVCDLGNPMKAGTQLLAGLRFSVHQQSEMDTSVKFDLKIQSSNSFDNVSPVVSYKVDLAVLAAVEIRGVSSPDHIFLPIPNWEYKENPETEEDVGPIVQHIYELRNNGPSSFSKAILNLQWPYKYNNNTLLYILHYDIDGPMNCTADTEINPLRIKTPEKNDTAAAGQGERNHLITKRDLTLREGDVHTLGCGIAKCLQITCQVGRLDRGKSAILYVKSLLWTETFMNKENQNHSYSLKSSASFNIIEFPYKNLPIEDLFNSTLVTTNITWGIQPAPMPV
T5 sequence (Q0VBD0 22-681 limits assumed, chain 2 of 2): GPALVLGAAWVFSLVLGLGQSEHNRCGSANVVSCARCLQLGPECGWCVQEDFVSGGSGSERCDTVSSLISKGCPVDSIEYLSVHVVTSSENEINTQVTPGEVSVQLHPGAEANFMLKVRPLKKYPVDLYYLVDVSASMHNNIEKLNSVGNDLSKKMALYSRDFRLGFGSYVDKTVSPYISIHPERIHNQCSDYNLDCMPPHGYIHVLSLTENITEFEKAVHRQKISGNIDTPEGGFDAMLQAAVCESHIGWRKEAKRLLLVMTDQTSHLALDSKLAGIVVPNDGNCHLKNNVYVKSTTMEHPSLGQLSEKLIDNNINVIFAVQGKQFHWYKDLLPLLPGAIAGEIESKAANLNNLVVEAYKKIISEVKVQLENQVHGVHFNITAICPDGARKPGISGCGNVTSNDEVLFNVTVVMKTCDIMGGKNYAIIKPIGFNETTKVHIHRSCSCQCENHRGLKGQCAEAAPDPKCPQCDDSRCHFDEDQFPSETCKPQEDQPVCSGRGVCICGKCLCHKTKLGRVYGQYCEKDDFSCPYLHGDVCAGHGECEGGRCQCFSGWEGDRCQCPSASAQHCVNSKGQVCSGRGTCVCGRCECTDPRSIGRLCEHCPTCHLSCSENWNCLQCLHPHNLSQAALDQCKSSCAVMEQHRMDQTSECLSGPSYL

B1: ADWA-11_4 mut (antibody, mouse IgG1, V domains shown)
VH: EVQLQQSGAELVRPGAFVKLSCKASGFNIKDYYMNWVLQRPEQGLEWIGWIDPDNGNTIYDPKFQGKASITADTSSNTAYLQLSSLTSEDTAVYYCARRLLMDYWGQGTSVTVSS
VL: DIVMTQAAPSVPVTPGESVSISCRSTKSLLHFNGNTYLFWFLQRPGQSPQRLIYYMSNLASGVPDRFSGRGSGTDFTLRISRVEAEDVGVYYCMQSLEYPFTFGTGTKLEIK
In general, EC50 refers to the midpoint of the concentration-response curve. Consider B1, for which the Kd in [1] came out at 0.823 nM. Also, the EC50 in test [2] came out at 0.823 nM.

B2: hIgG_VH05VK01 (antibody, V domains shown)
VH: EVQLVESGGGLVQPGGSLRLSCAASGFNIKDYYMNWVRQAPGKGLEWVGWIDPDNGNTIYDPKFQGRFTISADTSKNSAYLQMNSLRAEDTAVYYCARRLLMDYWGQGTLVTVSS
VL: DIQMTQSPSSLSASVGDRVTITCRSTKSLLHFNGNTYLFWYQQKPGKAPKRLIYYMSNLASGVPSRFSGSGSGTDFTLTISSLQPEDFATYYCMQSLEYPFTFGQGTKVEIKR
As for B2, in test [1], the Kd was found to be 0.43 nM. The concentration giving a half-maximal response (EC50) in test [3] is 0.434 nM. Further, in test [4], the IgG Potency TGFB Assay IC50 (pM) is 148 pM.

B3: ADWA11 VH05-2/VK01 IgG (antibody, V domains shown)
VH: B2 VH with N55Q, D61E
VL: DIQMTQSPSSLSASVGDRVTITCRSTKSLLHFNGNTYLFWYQQKPGKAPKRLIYYMSNLASGVPSRFSGSGSGTDFTLTISSLQPEDFATYYCMQSLEYPFTFGQGTKVEIK
notes: also called ADWA11 5-2_1; VH05/VK01-N55Q-D61E
As to B3, the binding result in test [5] and in test [6] was “no binding” each time. Also, the EC50 in test [7] is 0.0711 nM; in test [8], 0.0591 nM.

B4: ADWA11 VH05/VK01 Fab (Fab, V domains shown)
VH: B2 VH
VL: B3 VL
notes: Fab; also called VH05-2_VK01 parental
For orientation: koff means the rate constant with which the complex falls apart. A word on the kon: it is the rate constant with which the complex forms. By EC50 (read off the curve) is commonly meant the concentration at which the effect is half-maximal. Turning to B4, the Kd in test [9] was 0.118 nM; in test [10] it was no more than 0.1 nM; in test [11], no more than 0.1 nM; in [12] it was 0.16 nM; in [15], 0.05 nM and < 0.1 nM. For the same molecule, the koff in test [9] is 2.37e-05 s⁻¹; in test [10], no more than 2e-05 s⁻¹; in [11] it was no more than 2e-05 s⁻¹; in [12] it was 3.1e-05 s⁻¹. The kon turned out to be 200000 M⁻¹ s⁻¹ in test [9], 220000 M⁻¹ s⁻¹ in [10], 225000 M⁻¹ s⁻¹ in test [11] and 194000 M⁻¹ s⁻¹ in test [12]. In addition, the EC50 (read off the curve) in test [13] and in test [14] was 1 nM each time. For the same molecule, the fold lower KD than the mouse hybridoma antibody ADWA-11 in test [15] is greater than 5 fold. Also, the “EC50 value measured by apparent affinity in the TGF-β transactivation assay” value in [16] amounted to 1.3 nM.
